To fix the notation:
B1: E3 ubiquitin-protein ligase SH3RF1 (Homo sapiens), Q7Z6J0 (parent)
chain: MDESALLDLLECPVCLERLDASAKVLPCQHTFCKRCLLGIVGSRNELRCPECRTLVGSGVEELPSNILLVRLLDGIKQRPWKPGPGGGSGTNCTNALRSQSSTVANCSSKDLQSSQGGQQPRVQSWSPPVRGIPQLPCAKALYNYEGKEPGDLKFSKGDIIILRRQVDENWYHGEVNGIHGFFPTNFVQIIKPLPQPPPQCKALYDFEVKDKEADKDCLPFAKDDVLTVIRRVDENWAEGMLADKIGIFPISYVEFNSAAKQLIEWDKPPVPGVDAGECSSAAAQSSTAPKHSDTKKNTKKRHSFTSLTMANKSSQASQNRHSMEISPPVLISSSNPTAAARISELSGLSCSAPSQVHISTTGLIVTPPPSSPVTTGPSFTFPSDVPYQAALGTLNPPLPPPPLLAATVLASTPPGATAAAAAAGMGPRPMAGSTDQIAHLRPQTRPSVYVAIYPYTPRKEDELELRKGEMFLVFERCQDGWFKGTSMHTSKIGVFPGNYVAPVTRAVTNASQAKVPMSTAGQTSRGVTMVSPSTAGGPAQKLQGNGVAGSPSVVPAAVVSAAHIQTSPQAKVLLHMTGQMTVNQARNAVRTVAAHNQERPTAAVTPIQVQNAAGLSPASVGLSHHSLASPQPAPLMPGSATHTAAISISRASAPLACAAAAPLTSPSITSASLEAEPSGRIVTVLPGLPTSPDSASSACGNSSATKPDKDSKKEKKGLLKLLSGASTKRKPRVSPPASPTLEVELGSAELPLQGAVGPELPPGGGHGRAGSCPVDGDGPVTTAVAGAALAQDAFHRKASSLDSAVPIAPPPRQACSSLGPVLNESRPVVCERHRVVVSYPPQSEAELELKEGDIVFVHKKREDGWFKGTLQRNGKTGLFPGSFVENI
partner: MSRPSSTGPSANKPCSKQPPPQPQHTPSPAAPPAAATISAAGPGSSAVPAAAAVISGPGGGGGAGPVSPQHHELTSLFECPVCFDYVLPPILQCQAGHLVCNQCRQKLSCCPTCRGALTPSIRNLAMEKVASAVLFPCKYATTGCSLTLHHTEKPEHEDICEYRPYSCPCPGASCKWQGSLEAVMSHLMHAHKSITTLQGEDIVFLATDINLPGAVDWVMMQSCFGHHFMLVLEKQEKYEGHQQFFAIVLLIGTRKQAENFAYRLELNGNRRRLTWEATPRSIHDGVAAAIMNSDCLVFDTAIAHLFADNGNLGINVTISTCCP

In this assay the parent is B1. The following applies: with siah2_human SIAH2, O43255.
As to V605N;P607N, the “effect of a mutation on the interaction” value was “disrupting interaction”.
